The nanobody polyreactivity screen of Harvey et al. (2022)

test: yeast display, Sf9 membrane polyspecificity reagent, FACS + sequencing; frameworks hold sequencing errors
Outline: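 After 36–48 hours of galactose induction, yeast (Saccharomyces cerevisiae BJ5465) displaying a synthetic nanobody library were stained at 4 °C for 1 hour with 10% biotinylated, detergent-solubilized Sf9 membrane reagent. Streptavidin microbeads enriched the stained cells before FACS sorting into low and high (top ~1%) gates on anti-HA and streptavidin fluorescence. Each clone's polyreactivity label reflects its gate of origin.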

| Sequence | polyreactivity (PSR sort gate) |
| --- | --- |
| QVQHVESGGGLVQAGGSLRLSCAASGSIFGTYAIGWYRQAPGKERELVATISYGDGSTYYADSVKGRFTISRDNAKNTVYLEMNSLKPEDTAVYYCNTGVYSSGGPLDYWGQGTQVTVSS | low polyreactivity |
| QVQLVESGGGLVQAGGSLRLSCAASGIIFGVYAMGWYRQAPGKERELVAAIDGNGSSTYYADSVKGRFISSRDNAKTTVYLQMNSLKPEDTAVYYCAADLVWVSTSYYYWGQGTQVTVSS | low polyreactivity |
| QVQLVESGGGLVQAGGSLRLSCAPSGRIFGHYAMGWYRQATGKERELVAAINWRGGSTYYADSVNGRFTISRDNAKNTVYLQMNSLKPEDTAVYYCAADWTKARDSIYDYWGQGTQVTVSS | low polyreactivity |
| QVQLVESGGGLVQEGGSLRLSCAASGITFSRNAMGWYRPAPGKERELVATITSGGSTNYADSVKGRFTISRDNAKNNVYLQMNSLKPEDTAVYYCNAVWNTFISGRSYDYWGQGTQVTVSS | low polyreactivity |
| QVQLVESGGGLVQAGGSLRLSCAASGRIFSRNAMGWYRQAPGKERELVAAISRSGGSTYYADSVKGRFTISRDNAKNTVYLQMNSLKPEDTAVYYCNTRYRPVKGSGPRYDYWGQGTQVTVSS | low polyreactivity |
| QVQLVESGGGLVQAGGRLRLSCAASGGTFSSNAMGWYRQSPGKERELVAAITWSGGSTYYADSVKGRFTISRDNAKNTVYLQMNSLKPEDTAVYYCNARNQWRTVGKYDYWGQGTQVTVSS | low polyreactivity |
| QVQLVESGGGLVQAGGSLRLSCAASGSTLFAYAMGWYRQAPGKERELVAAITSGASTNCADSVKGRFTISRDNAKNTVYLQMNSLKPEDTAVYYCAKDVSGTNPDYDYWGQGTQVTVSS | low polyreactivity |
| QVQLVESGGGLVQAGGSLRLSCAASGRIFRGNAMGWYRQAPGKERELVARITGNDGDTYYADSVKGRFTISRDNAKNTVYLQMNSLKPEDTAVYYCATDTSSYRRRYYYWGQGTQVTVSS | low polyreactivity |
| QVQLVESGGGLVQAGGSLRLSCAASGIFFIYSMGWYRQAPGKERELVADIDSGGPTYYADSVKGRFTISRDNAKNTVYLQMNSLKPEDTAVYYCAVDYSNVDLYSLLFYESDYWGQGTQVTVSS | low polyreactivity |
| QVQLVESGGGLVQAGGSLRLSCAASGLTFSYYARGWYRQAPGKERELVAAISWSGDSTYYADSVKGRFTISRDNAKNTVYVQMHSLKPEDTAVYYCAVVSDFYTPYTGWPFLDYEYWGQGTQVTVSS | low polyreactivity |
| QVQLVESGGGLVQAGGSLRLSCAASGRIFSWYTMGWYRQAPGKERELVAAISWSGTSTYYADSVKGRFTISRDNAKNTVYLQMNSLKPEDTAVYYCARVLSPYYSTRYDHWGQGTQVTVSS | high polyreactivity |
| QVQLVESGGGLVQAGGSLRLSCAASGSIFSYYAMGWYRQAPGKETEVVAAISQNGGSTYYADSVKGRVTISRDNAKNTVYLQMNSLKPEDTAVYYCNAYSVYVRGEYWGQGTQVTVSS | high polyreactivity |
| QVQLVESGGGLVQAGGSHGLSCAASGRTSEKNPMGWYRQAPGIERELVAGISWRGGSTYYADSVKGRFTISRDNAKNTVYLQMNSLKPEDTAFYYCARSGAFSGLDDSWGQGTQVTVSS | low polyreactivity |
| QVQLVESGGGLVQAGGSLRLTCAASGLIFYAYAMGWYRPAPWKERELVAAITSGGDTNYADSVKGRFTISRDNAKNTVYLQMNSLKPEDTAVYYCNADPPVFQSVYWRWYHNYDYWGQGTQVTLSS | low polyreactivity |
| QVQLVESGGGLVQAGGSLRLSCAASGSIFNRYAMGWSRQAPGKARELVPAISRRGAGTYYADSVKGRFTISRDNAKHTVYLQMNSLKPDDTAVYYCAAAGYFPTAGSRRAYYYCGQGTQVTVSS | high polyreactivity |
| QVQLVESGGGLVQAGGSLRLSCAASGSISGYYAMGWYRQAPGKERELVASIRYTGARTYYADSVKGRFTISRDNAKNTVYLQMNSLKPEDTAVYYGAADVKRDRVWGGDYWGQGTQVTVSS | low polyreactivity |
| QVQLVESGGGLVQAGGSLRLSCAASGRTFPGNAMGWYRQAPGKERELVAAISWSGTRTYYADSVKGRFTISRDNAKNTVYLQMNSLKPEDTAVYYCNRRYWSFFPYDYWGQGTQVTVSS | high polyreactivity |
| QVQLVESGGGLVQAGGSLRISCAASGSIFVLYAMGWYRQAPGKERELVATITWSGDSTYYADSVKGRFTISRDNAKNTVYLQMNSLKPEDTAVYYCNKRIWDQYDWGQGTQVTVSS | low polyreactivity |
| QVQLHESGGGLEQEGGSLRLTCEASGNISPPADMGWYRQAPRKERELVASIGTGGTTNYADIVKARFTISRDNAKNTVYLQMNSLKPDDTSVYYWAAVRYEYNPYDYWGQGTQVTVSS | low polyreactivity |
| QVQLVETGGGLVQAGGSLRLSCAASGSIFVYYAMRWYRQAPGKERELVAAITIGASTDYADSVKGRFTISRDNAKNTVYLQMISVKPEDTAVYNCAADLYYGDYRTLPKADEYDYWGQGTQVTVSS | low polyreactivity |
| QVQLVESGGGLVQAGGSLRLSCAASGFNFGYNALGRYRQAPGKEREMVAAISSGGSTYYADSVKGRFTISRDNAKNTVYLQMNSLQPEDTAVYYCAVELGYPIQSYALWWDFEYWGQGTQVTGSS | low polyreactivity |

| Sequence | polyreactivity (PSR sort gate) |
| --- | --- |
| QVQLVESGGGLVQAGGSLRLSCAASGGTFYVKDMAWYRQAPWNERDLVATITYSGTSTYYADSVKGRFTISRDNAKNTVYLQMKSLKPEDTAVYYCATDVLLYFEPVNLDYWGQGTQVTVSS | low polyreactivity |
| QVQLVESGGGLVQAGGSLRLSCAASGSIFGWNAMGWYRQAPGKERELVAAISSGGSTYYADSVKGRFTISRDNAKNTVSLQMNSLKPEDTAVYYCNAYFQYYDYWGQGTQVTVSS | low polyreactivity |
| QVQLVESGAGLVQAGGSLRLSCAASGLTFALYAMGGYRQAPGKERELVAAIDWSGGITYYADSVKGRFTISRDNAKNTVYLQLNSLKPEDTAVYYCAARPSTFKYKYGYWGQGTQVTVSS | high polyreactivity |
| QVQLVESGGGLVQAGGSLRLSCAASGSTLVSNAMGWYRQAPGKERELVASISYSATSTYYADSVKGRFTISRDNAKNTVYLQMNSLKPEDTAVYYCAAKTFRSRYYYWGQGTQVTVSS | high polyreactivity |
| QVQIVESGGGLVQAGGSLRLSCAASGSIFRRYAMGWYRQEPGKERELVAAISSNGGSTYNADSVKGRFTISRDNAKNTVYLQMNSLKPEDTAVYYCNAPPLYRDEYWGQGTQVSVSS | high polyreactivity |
| QVQLVESWGGLVQAGGSLRLSCAASGFTYSQYVMGWYIQAPGKERELVASITGNGGSTRYADSVKGRFTISRDNAKNTVYLHMNSLKPEDTAVYYCAARYVYFRWGSFDYWGQGTQVTVSS | high polyreactivity |
| QVQLVESGGGLVQAGGSLRLSCDASGRIFSPNTMGWYRQAPGKERELVAAISRGGSTYADSVKGRFTISRDNAKITVYLQMNSLKPEDTAVYYCNARYGRYYGAYEYWGQGTQVTVSS | high polyreactivity |
| QVQLVESGGGLVQAGCSLRLSCAASGFTFAKYAMGRYRQAPGKERELVAAITYRDGSTYYADSVKGRFTISRDYAKNTVYLQMNSLKPEDSAVYYCAAVASYVRYGYWGQGTQVTVSS | high polyreactivity |
| QFQLVESGGGLVQAGGSVRLSCAASGSTFYLYAMGWYRQAPGKERELVAAITYGGGSTYYADSVKGRFTISRDNAKNTVYLQMNSLKPEDTAVYYCAARWLYWPRYNSLVYTHRDSWGQGTQVTVSS | low polyreactivity |
| QVQLVESGGGLVQAGGSLRLSCAASGYTFYANAMGWYRQAPGKEREFVASINYSGGSTYYADSVKGRFTISRDNAKNTVYLQINSLKPEDTSVYYCAARTGTLDDWDYAYDYWGQGTQVTVSS | low polyreactivity |
| QVQLVESGGGLVQAGGSLRLSCSASGFTFEEYAMGWYRQAPGKERELVAAIDYTVGSTYYADSVKGRFTISRDNAKNTVYLQINSLKPEDTAVYYCNVDLSYSFNSAYGYWGQGTQVSVSS | low polyreactivity |
| QVQLVESGGGLVQAGGSLRLSCAASGLTFHYYAMGRYRQATGKERELVAVIRGSCTSTYYADSVKGRFTISRDNAKNTVYLQMNSLKPEDTAVYYFAAPYQYRRSGRVLGKYDSRGQGTQVTVSS | high polyreactivity |
| QVQLVESGGGLVQAGGSLRLSCAASGGIFAYNAMGWYRQAPGKERELVATISYSGGSTYYADSVKGRFTISRDNAKNTVYLQMNSLKPEDTAVYYCATRLYGWRGRYNYWGQGTQVTVSS | high polyreactivity |
| QVQLVESGGGLVQAGGSLRLSCAASGRTFVSYVMGWYRQAPGKERELVAAIDQSGDRTYYPDSVKGRFTISRDNAKNTVYLQMNSLKPEDTAVYYCASRWGYSSRPYYYWGQGTQVTVSS | high polyreactivity |
| QVQLVESGGGIVQAGGSLRLSCAASGSTFEANAMGWYRQARGKERELVAAISSGDRTNYADSVKGRFTISRDNAKNTVYLQLNSLKPEDNAVYFCAAPTDSYYEFDYWGQGTQGTVSS | low polyreactivity |
| QVQLVESGGGLVQAGGSLRLSCAASGSTFTNYAMGWYRQAPGKERELVAAIDRRDGTTYYADSVKGRFTISRDNAKNTVYLQMNSLKPEDTAVYYCAADRDYSADVPGYYYWGQGTQVTVSS | low polyreactivity |
| QVQLVESGGGLVQAGGSLRLSCAASGIFFLYMGWYRQAPGKERELVAAISDSGGTTYYADSVKGRFTISRDNAKNTVYLQMNSLKPEDTAVYYCAAEIENLNWFYWDYLEYDYWGQGTQVTVSS | low polyreactivity |
| QVQLVESGGGLVQAGGSLRLSCAASGITFRSYAMGWYRQAPGKDRELVAAISRTGGRTYYADSVKGRFTISRDNAKNTVYLQMNTLKAEDTAVYYCAAGGYSPYSLVGYDYWGQGTQVTVSS | high polyreactivity |
| QVQLVESAGGLVQAGGSLRLSCAASGSTFTLYAMGWYRQAPGKERELVAAISWSGDSTYYADSVKGRFTISRDNAKNTVYLQMNSLKPEDTAVYYCAAENVYGYDYWGQGTQVTESS | high polyreactivity |
| QVQLVESGGGLVQAGGSLRLSCAASGSTFGYNGMGWYRQGPGKERELVAAISGGARTYADSVKGRFTISRDNAKNTVYLQMNSLKPEDTAVYYCAADSPVSVTADDGYWGQGTQLTVSS | low polyreactivity |
